The record followed here is publication PMC5209314, “Purification and characterization of a novel glutamate dehydrogenase from Geotrichum candidum with higher alcohol and amino acid activity” (AMB Express, 2017).

A word on the Km: it is the substrate concentration at which the rate is half of its maximum.

Substrate in data set [1]: N
Description: purified protein. The note with it: pH 4.0, 30 °C, printed unit doubtful: tested 5-50 mmol/L and same column is mM in abstract, so probably mmol/L.

Substrate in data set [2]: CC(C)CCO
The data set is described as follows: GC of substrate decrease, Lineweaver-Burk. The data set is classed as biochemical, Geotrichum candidum. The note with it: NADP+, pH 4.0, 30 °C, Table 2 header prints mol/L, abstract mM.

Substrate in data set [3]: CCCCCCO
Description: GC of substrate decrease, Lineweaver-Burk. Type of data set: biochemical, Geotrichum candidum. The conditions noted are these: NADP+, pH 4.0, 30 °C, Table 2 header prints mol/L, abstract mM.

Substrate in data set [4]: O=C(O)CCC(=O)C(=O)O
Description: purified protein. The data set is classed as biochemical, Geotrichum candidum. The note with it: NADPH, NH4+, pH 4.0, 30 °C, Table 2 header prints μmol/L, abstract mM.

Substrate in data set [5]: N[C@@H](CCC(=O)O)C(=O)O
Description: purified protein. Type of data set: biochemical, Geotrichum candidum. The conditions noted are these: NADP+, pH 4.0, 30 °C, Table 2 header prints μmol/L, abstract mM, competitive with hexanol, b65 prints other Michaelis constants (61.02 and 13.43 mM, both called glutamate).

Substrate in data set [6]: NC(=O)C1=CN([C@@H]2O[C@H](COP(=O)(O)OP(=O)(O)OC[C@H]3O[C@@H](n4cnc5c(N)ncnc54)[C@H](OP(=O)(O)O)[C@@H]3O)[C@@H](O)[C@H]2O)C=CC1
The data set is described as follows: purified protein. The data set is classed as biochemical, Geotrichum candidum. The note with it: pH 4.0, 30 °C, printed unit doubtful: tested 0.01-0.1 mmol/L and same column is mM in abstract, so probably mmol/L, varied: cofactor.

B1: glutamate dehydrogenase (GDH) from Geotrichum candidum S12 (Geotrichum candidum) (protein)
chain: MVQPSEPEFEQAYNELLSTLKDSTLFEKRPELEKVIPIVSIPERVLQFRVVWEDDNGVAQVNRGYRVQFNSALGPYKGGLRFHPTVNLSILKFLGYEQIFKNALTGLNMGGGKGGSDFDPKGKSDSEIRRFCVAFMGELHRHIGADTDVPAGDINVGGREIGYLFGAYKKFKNTWEGVLTGKGLTWGGSLIRPEATGYGVVYYVEKMIEYATQGKESFAGKTVAISGSGNVAQYAALKVIELGGTVVSLSDSKGAFIATTAEGFTPAEIAEIADIKVSHAQLSTLADKFASKFKYLEGARPWVHVKADVALPCATQNEVSGEEAEALVANGTKFIAEGSNMGSTQEAIDVFEAERLKNPQGIWYAPGKAANAGGVAVSGLEMAQNSQRGNWSTEEVDQRLKEIMVNIFNTSVSTAVEYSSEKGDSLPSLVKGANIAGFVKVADAMHDHGDFW
notes: identified by PMF similarity to Yaliof17820p (Yarrowia homologue)
B1: the Km in “purified protein [1]” was found to be 0.00535 mM; in data set [2], 19.37 mM; in data set [3], 20.37 mM; in “purified protein [4]” it was 4.01 mM; in the data set “purified protein [5]” it was 41.74 mM; in “purified protein [6]”, 0.00013 mM.
